The record followed here is article PMC7299955, “GTP hydrolysis by Synechocystis IM30 does not decisively affect its membrane remodeling activity” (Scientific Reports, 2020).

Data set [1] deals with T1, SynIM30 WT (Synechocystis sp. PCC 6803, UniProt Q55707).
T1 construct: gene vipp1; full length, N-terminal His-tag kept (pRSET IM30 WT), E. coli BL21(DE3), Ni-NTA; high molecular mass homo-oligomeric rings
T1 sequence (Q55707 1-267): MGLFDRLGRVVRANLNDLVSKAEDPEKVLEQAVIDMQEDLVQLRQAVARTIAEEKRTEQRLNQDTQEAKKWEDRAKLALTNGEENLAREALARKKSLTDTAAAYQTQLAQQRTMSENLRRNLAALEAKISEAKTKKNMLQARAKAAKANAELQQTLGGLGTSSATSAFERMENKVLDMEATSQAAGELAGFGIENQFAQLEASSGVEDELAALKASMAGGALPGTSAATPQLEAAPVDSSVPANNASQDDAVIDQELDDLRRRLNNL
Nature of the data set: malachite green Pi release. The data set is classed as biochemical. Particulars: 0.5 mM GMP-PCP, GTP varied, 2.5 mM Mg2+, 37 °C; competitive or allosteric not resolved. The source says:
malachite green Pi release on SynIM30 WT | […]

The target of data set [2] is T1, SynIM30 WT. The experiment in a line: thermal denaturation, CD at […] nm. The note with it: 0.5 mM GTP with or without 2.5 mM Mg2+; 3.2 µM protein. The data set is classed as binding.
Substrate in data set [3]: Nc1nc2c(ncn2[C@@H]2O[C@H](COP(=O)(O)OP(=O)(O)OP(=O)(O)O)[C@@H](O)[C@H]2O)c(=O)[nH]1
Nature of the data set: malachite green Pi release, Hill fit. The data set is classed as biochemical, Synechocystis sp. PCC 6803. The note with it: 2.5 mM Mg2+, 20 mM HEPES, 37 °C, 30 min, Hill coefficient 1.29 ± 0.09.

Data set [4] deals with the molecule itself. The experiment in a line: SEC; Superose 12 10/300 GL column, 20 mM HEPES pH 7.6, 8 °C, elution followed at 280 nm; calibrated against standards of known size. (Size exclusion chromatography separates by hydrodynamic size, large species first.)

Consider `Nc1nc2c(ncn2[C@@H]2O[C@H](COP(=O)(O)OP(=O)(O)CP(=O)(O)O)[C@@H](O)[C@H]2O)c(=O)[nH]1` [GMP-PCP], for which the “malachite green Pi release” value on SynIM30 WT [1] is on record as “Addition of the non-hydrolyzable GTP analog GMP-PCP”.

With `Nc1nc2c(ncn2[C@@H]2O[C@H](COP(=O)(O)OP(=O)(O)OP(=O)(O)O)[C@@H](O)[C@H]2O)c(=O)[nH]1` [GTP], at SynIM30 WT [2], the Tm result is “This suggests that GTP binding affects the structure and stability of IM30 to some extent”.

B1: Synechocystis IM30 wild type (inner membrane-associated protein of 30 kDa) (natural protein, Synechocystis sp. PCC 6803, UniProt Q55707 1-267, looked up)
chain: MGLFDRLGRVVRANLNDLVSKAEDPEKVLEQAVIDMQEDLVQLRQAVARTIAEEKRTEQRLNQDTQEAKKWEDRAKLALTNGEENLAREALARKKSLTDTAAAYQTQLAQQRTMSENLRRNLAALEAKISEAKTKKNMLQARAKAAKANAELQQTLGGLGTSSATSAFERMENKVLDMEATSQAAGELAGFGIENQFAQLEASSGVEDELAALKASMAGGALPGTSAATPQLEAAPVDSSVPANNASQDDAVIDQELDDLRRRLNNL
notes: IM30 (Vipp1) of the cyanobacterium Synechocystis sp; PCC 6803; Forms high molecular mass homo-oligomers (>300 kDa by SEC); the number of chains in them is not determined here; also called SynIM30; SynIM30 WT; source: E. coli BL21 (DE3), purified (Ni-NTA, Sephadex G25 buffer exchange)
As to B1, in data set [3], the Km turned out to be 650 ± 140 µM and the kcat came to 0.036 ± 0.0055 s⁻¹. Moreover, the binding result in data set [4] was “binds”.

B2: SynIM30 FERM_EE (E83A, E84A, F168A, E169A, R170A, M171A) (natural protein, Synechocystis sp. PCC 6803, UniProt Q55707 1-267, looked up)
chain: MGLFDRLGRVVRANLNDLVSKAEDPEKVLEQAVIDMQEDLVQLRQAVARTIAEEKRTEQRLNQDTQEAKKWEDRAKLALTNGAANLAREALARKKSLTDTAAAYQTQLAQQRTMSENLRRNLAALEAKISEAKTKKNMLQARAKAAKANAELQQTLGGLGTSSATSAAAAAENKVLDMEATSQAAGELAGFGIENQFAQLEASSGVEDELAALKASMAGGALPGTSAATPQLEAAPVDSSVPANNASQDDAVIDQELDDLRRRLNNL
notes: IM30 (Vipp1) of Synechocystis sp; PCC 6803 with six mutations brought into the plasmid of IM30 WT; mainly tetramers in buffers of low ionic strength; also called tetrameric SynIM30 variant; source: E. coli BL21 (DE3), purified (Ni-NTA, Sephadex G25 buffer exchange)
Turning to B2, the “stoichiometry N” value in data set [4] was found to be 4.

As usually defined, the Km is the substrate concentration at which the rate is half of its maximum. In general, kcat refers to the number of substrate molecules converted per active site and unit of time at saturation. Broadly, the stoichiometry N is the number of molecules, sites or subunits per partner or assembly.
